In the assay the target is T1, TNFR1 (Homo sapiens, UniProt P19438).
T1 chain: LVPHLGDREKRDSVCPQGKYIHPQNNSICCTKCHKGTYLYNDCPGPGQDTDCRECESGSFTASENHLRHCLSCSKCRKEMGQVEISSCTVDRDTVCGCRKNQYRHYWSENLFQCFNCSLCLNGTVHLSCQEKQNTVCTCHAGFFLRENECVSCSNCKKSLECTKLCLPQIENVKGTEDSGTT
Nature of the assay: ELISA. In general terms: ELISA stands for enzyme-linked immunosorbent assay.

Bridges are numbered along the chain shown (N, C = ends). Where no end group is shown, it is not given here.

B1: L16R (α_CC8 L16R cyclic peptide) (peptide)
chain: CTISRIAVSYQTKVNRLSC
modifications: disulfide 1-19
B1 displayed a Kd of 177 nM.

B2: WP9QY (peptide)
chain: YCWSQYLCY
modifications: disulfide 2-8 (inferred)
Molecule B2 displayed a Kd of 1150 nM.

By Kd is commonly meant the constant that tells how readily two partners part at equilibrium.

The values above are taken from PMC11547827 (2024).
